{
  "source": "the DeepSol protein solubility set",
  "data": [
    {"experiment": "soluble on expression in E. coli; label from the status in PepcDB or PDB records", "values": [
      {"sequence": "METEIKRTSTKDIIAYLTEKFPECFSIKGPVKPLKIGIFQDLAEKLDDDETVSKTRLRQALRHYTSSWRYLKVIKVGNSRVDVDGKDVAEIDEDQAAYASKTLKESQEKFGNKKATDNDAKKPYKGKQGSTEAANNKPADKKRESTKFKTVKSTPKKTVKKEVEPLKSVESTTINVGSKVRVQLGNSPMKATITEISGKDISVQLDSGMVIKTQLQNIYL", "soluble on expression in E. coli": "not soluble"},
      {"sequence": "METFGVFHKEDDEQMDLPPGFRFHPTDEELITHYLHKKVLDLGFSAKAIGEVDLNKAEPWELPYKAKIGEKEWYFFCVRDRKYPTGLRTNRATQAGYWKATGKDKEIFRGKSLVGMKKTLVFYRGRAPKGQKTNWVMHEYRLDGKLSAHNLPKTAKNEWVICRVFHKTAGGKKIPISTLIRIGSYGTGSSLPPLTDSSPYNDKTKTEPVYVPCFSNQAETRGTILNCFSNPSLSSIQPDFLQMIPLYQPQSLNISESSNPVLTQEQSVLQAMMENNRRQNFKTLSISQETGVSNTDNSSVFEFGRKRFDHQEVPSPSSGPVDLEPFWNY", "soluble on expression in E. coli": "soluble"},
      {"sequence": "METGAGIGLYPLHRCKTIYLVRHAQGIHNVDGEKNYKAYMSHDYFDAELTQLGWKQVDSLRKHVHSSGLHKKIELVISSPLMRTLQTAVGVFGGEGYTDMSDVLPLMVANAGNSSRAAISSLNCPPVITEESCREHLGVHPCDQRRSISDYQFLFPAVDFSLIESEEDKLWKADVRETIEELAARGKKFLNWLWTRKEKEIAIVTHSGFLFHTLNALQNECHPDVKKEICGHFANCELRSMVIVDRSMLGSDSSVTDYPGKIPKGIDLPSDAVVDDNNIKVE", "soluble on expression in E. coli": "soluble"},
      {"sequence": "METGTPLIAETIALTEKKVAMALDDIIKLAKRKTNVNKGKKPRREKNKNQNFNGAARNNTSNVRHHMNSLSAVRQGAVGKRRSRFQGIQFPVTTNIARKASTAAPLDFRGRAFNGGRMTSANQSRLIAPPVQNISVQARVNAKRHEVDQKVEHRGGKRKTLDSRFASMKEQRMTINNYGVTVQVPRLPPWVRARRFSQ", "soluble on expression in E. coli": "not soluble"},
      {"sequence": "METKKIAGVLVTMVAPFENHMANGGEKLFGNASSIKRRPDGRVYVSGQMQRHVLFSAIDRLNHLDKAKGTTFVSNGDGITNLIEIDLRADLGGFMHTNKGDYSDRRIAPLSVTPATALDTSSVGRDLLVRIRFDKSSDAKNQALATREYSEQDKMNMNFFLDITSVGVSKSFVYKDGLNLGTKYFKHITDDEKKRRVKLFLEATRIMNDYANQARNAVCGEPEKVLIVFDDRLSRKACRYYTVGEKEQANIIKELDQYQVKYFVGDDASDYSVADAYRDAMNYLDKATLVDFAEGEEIMTFAEAFECKEKEPQEKKSKKGKDKATSAQNLFAEQQDDQ", "soluble on expression in E. coli": "not soluble"},
      {"sequence": "METMKSKANCAQNPNCNIMIFHPTKEEFNDFDKYIAYMESQGAHRAGLAKIIPPKEWKARETYDNISEILIATPLQQVASGRAGVFTQYHKKKKAMTVGEYRHLANSKKYQTPPHQNFEDLERKYWKNRIYNSPIYGADISGSLFDENTKQWNLGHLGTIQDLLEKECGVVIEGVNTPYLYFGMWKTTFAWHTEDMDLYSINYLHLGEPKTWYVVPPEHGQRLERLARELFPGSSRGCGAFLRHKVALISPTVLKENGIPFNRITQEAGEFMVTFPYGYHAGFNHGFNCAEAINFATPRWIDYGKMASQCSCGEARVTFSMDAFVRILQPERYDLWKRGQDRAVVDHMEPRVPA", "soluble on expression in E. coli": "soluble"},
      {"sequence": "METPETRFCKESKVVKTSRVFPLDTNNHNTLFGGKLMSYIDDIASISAARHCRRETVTASMDSVDFLKPIGQKDSVCLESYVTWVGTSSMEVFVKVIKEHLMTGERELAATSFLTFVALDSNGKPVPVPRVVPETEEEIMLHNTAVQRANERKNRKRHSQALANALGTDKPWVNVKPKTLEHHHHHH", "soluble on expression in E. coli": "not soluble"},
      {"sequence": "METQIHQLEQEAYTAVLRAFKAQSDAISWEKESLITELRKELRVSDDEHRELLSRVNKDDTIQRIRDWRQGGASQITRHATIQPFDVLPSPTFSAARKKQKTFPSYNPSIGATGNRSFNNRLVSSGISGNESAEALIGRKVWTKWPEDNHFYEAIITQYNADEGRHALVYDIHAANETWEWVDLKEIPPEDIRWDGEESGVALNIGHGSASFRGNRRGQIHGGRGRGPRIHQPRRELVPPPTQQNGSGGRRTSSDDIELFNTDSLVKEVERVFDSTHPDPLELDKAKKMLKEHEQALIAAIARLADTSDGEMDGDPPYSHDHPMPQG", "soluble on expression in E. coli": "not soluble"},
      {"sequence": "METTSVFRADFLSELDAPAQAGTESAVSGVEGLPPGSALLVVKRGPNAGSRFLLDQAITSAGRHPDSDIFLDDVTVSRRHAEFRLENNEFNVVDVGSLNGTYVNREPVDSAVLANGDEVQIGKFRLVFLTGPKQGEDLEHHHHHH", "soluble on expression in E. coli": "not soluble"},
      {"sequence": "METTWDLTPLFPGLESPEFQRAWEGLKGRIGELKGLLEREAPLPEVLAALDAFLEEATPLRAYLYARYSADTRDEAALAKLSELEILFLDFQRLRPRLTRYLALKDPEEAGPHRLLVEEAKEEALHMMPEGEEVLAAELSLSGRAAWDKLHESLTSQITAVVDGEEMPITKVRNLYFHPEEEVRKKAYEAELKAWEAHEVPLAFALNGVKGEASVLNRRRGYRDDLEPTLHENRITRKALKAMQEAVGESLPLFRRYFLLKARALGKERLDWWDLFAPLGRGRRWSLEEARAFIPAKLAALVPNAAKVAEMAFHERWMDLLPRKGKVGGAYCMARGGGKSLILANYEESFESVSTLAHELGHAYHNFALKEAPASLRRVPMTLAETASIMNETLVVEAALKEASPEEGLLILDAYLQGAAQVVVDIHSRFLFESWVFQRRKARELSPREFKELMLKAQEEAYGEALATRHPYMWAVKGHYYGADFYNYPYTFGLLFGLAVYQEAKEDPGFAGRYEALLAESGRYRAKELALRFGFDLESVDFWRRGIRVLEEKVAQLERMISP", "soluble on expression in E. coli": "soluble"},
      {"sequence": "MEVDPGSDDVEADRETRAQKLKLKRNVKFRAQMRRFDEYCGVTNLTVDDLNWPLISGIPLQRQRLTGATYYDDSLLDQNPWDEFSIDRFLEITSIQLITAGAGYERNDEITRFVFQRTMKTIVTYCNFMYDLARRNGKVQITRFELQDLIHRDEFRFYMYFRQFLPNPDPNCTAFSNHYTSLLHTLYFNIPGMPQFWNNSQMYNYAATRGQRLVQNIAAFYPPEYFWNEDESKYHTTFVVPRGTEFSKFYARRFHEALGMPPLENEIITVLDWLAKLCILEIVYHTTIWCDITGFGGLPRIEHYRLAMENVEDIIFDLAIDDFSISRLQLQISPFEISRYSPLDVSGYYETIKRKKDIEEYQNRFYEVHYSDDVRIMNVYATDCSRKR", "soluble on expression in E. coli": "not soluble"},
      {"sequence": "MEVLGITEKALNYYRENVKDNKTITPDQALLKMIRNVLLVKETHPERVKKRLFCTEYAYGNMIIKVNRKKQVFEIVNKSGCFSDQNDWKFPKRRYIELSKELGIKDCKFRKITYSKKNHNKQKLEHHHHHH", "soluble on expression in E. coli": "soluble"},
      {"sequence": "MEYRIERDTMGEVRVPADKYWGAQTQRSLENFRIGTDRFRMPLEIIRAYGMLKKAAARANLELGELPEEIAKAIIQAAEEVVQGKWDDHFPLVVFQTGSGTQTNMNVNEVIANRASEILGKPLGSKYVHPNDHVNRGQSSNDTFPTAMYVAVALALHQRLYPAVEGLIRTFTAKAQAFDQIVKVGRTHLMDAVPITLGQEIGSWAAQLKTTLAAVKEMEKGLYNLAIGGTAVGTGLNAHPRFGELVAKYLAEETGLPFRVAENRFAALAAHDELVNVMGAIRTLAGALMKIGNDVRWLASGPYAGIGEITIPANEPGSSIMPGKVNPTQVEALTMVVVRVYGNDHTVAFAGSQGNFQLNVYKPVMAYSTLESINLLADAVASFDAHLAQGIEPNLERIEEHLQKNPMLATALNKAIGYDKAAEIVKKALKEKKTLKQAALELGYLTEEEFDRIVVPMRLAKPHEGA", "soluble on expression in E. coli": "soluble"},
      {"sequence": "MEYRLFGQVTRALMDASQAPADDIATRIDALDWNRKVWSALATDCALPENQLPMELRASIISLSLWVGRHSSAVMRKEEDFEPLIEINRMIMQGLAGRADAA", "soluble on expression in E. coli": "not soluble"},
      {"sequence": "MFALVLFVCYLDGGCEDIVVDVYNTEQQCLYSMSDQRIRQGGCFPIEDFIDGFWRPAQEYGDFLEHHHHHH", "soluble on expression in E. coli": "soluble"},
      {"sequence": "MFEIATTPMATTVVISGDLDLASRDQFLEVAARLTSLRRSLLTIDMCDVRFMDSTGAAFLISLAETGQRRGWLTVLRGSSDAHRFVLDICGATHLFRFDTEHYCHHTASPA", "soluble on expression in E. coli": "not soluble"},
      {"sequence": "MFEKWIGLTLLLNSLAYPCQKVTISFKQYENLLHIHQKGCDNEVMCRTLISIALLESSLGLNNRREKSLKDTSYSMFHITLNTAKKFYPTYSKTLLKFKLLNDVGFAIQLAKQILKENFDYYKQKHPNKSVYQLVEMAIGAYNGGMKHNPNGAYVKKFRCIYSQVRYNE", "soluble on expression in E. coli": "not soluble"}
    ]}
  ]
}
